The values that follow come from US20180186871A1.

Read-outs that look alike come from different tables or passages of the source.

What all share (experiment): cell-based or functional assay
The target of test [1] is human IL-11 (human) (UniProt P20809).
Test [2] deals with T1, murine IL-11 (mouse) (UniProt P47873).
T1 sequence (looked up): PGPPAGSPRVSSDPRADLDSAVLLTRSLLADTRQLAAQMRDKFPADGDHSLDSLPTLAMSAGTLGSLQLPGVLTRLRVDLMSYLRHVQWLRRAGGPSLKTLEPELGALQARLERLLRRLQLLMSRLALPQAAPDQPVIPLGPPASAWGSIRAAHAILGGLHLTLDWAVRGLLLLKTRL

Test [3] has as its target IL-11:IL-11Rα fusion protein.
The target in test [4] is T1, murine IL-11 (mouse). The source holds these as a separate data set.

IL-11:IL-11Rα fusion protein, sequence (chain, as listed by the source limits assumed): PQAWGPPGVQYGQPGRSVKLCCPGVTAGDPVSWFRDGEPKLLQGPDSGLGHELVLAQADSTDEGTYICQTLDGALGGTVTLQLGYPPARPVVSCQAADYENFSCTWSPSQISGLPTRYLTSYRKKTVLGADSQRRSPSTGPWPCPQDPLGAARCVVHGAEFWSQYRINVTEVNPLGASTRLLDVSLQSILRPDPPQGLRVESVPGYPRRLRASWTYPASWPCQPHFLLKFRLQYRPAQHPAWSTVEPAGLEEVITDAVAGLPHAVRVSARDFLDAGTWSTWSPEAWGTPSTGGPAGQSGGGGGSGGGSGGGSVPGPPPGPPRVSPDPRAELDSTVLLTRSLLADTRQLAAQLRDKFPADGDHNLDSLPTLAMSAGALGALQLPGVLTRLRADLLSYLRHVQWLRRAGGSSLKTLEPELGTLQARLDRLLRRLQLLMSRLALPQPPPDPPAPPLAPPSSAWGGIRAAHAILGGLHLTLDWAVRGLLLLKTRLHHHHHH

Consider “Monoclonal Mouse IgG2A anti-human IL-11 antibody, Clone #22626, Catalog No. MAB218 (R&D Systems)”, for which, in test [1], the percentage of αSMA-positive (activated) fibroblasts, human atrial fibroblasts + TGFβ1 stood at 28.3%; the percentage of αSMA-positive (activated) fibroblasts, human atrial fibroblasts + TGFβ1, normalised to unstimulated (=1) (fold of unstimulated) came out at 0.99; the percentage of αSMA-positive (activated) fibroblasts, human atrial fibroblasts + TGFβ1, relative to unstimulated was found to be 0.89 times. In addition, in test [2], the percentage of αSMA-positive (activated) fibroblasts, mouse atrial fibroblasts + TGFβ1 worked out at 39.4% and the percentage of αSMA-positive (activated) fibroblasts, mouse atrial fibroblasts + TGFβ1, normalised to unstimulated (=1) (fold of unstimulated) is 1.24. In addition, in test [3], the percentage of αSMA-positive (activated) fibroblasts, human atrial fibroblasts + hyper IL-11 (0.2 ng/ml) turned out to be 33.8% and the percentage of αSMA-positive (activated) fibroblasts, human atrial fibroblasts + hyper IL-11 (0.2 ng/ml), normalised to unstimulated (=1) (fold of unstimulated) is 1.28. Moreover, in test [4], the percentage of αSMA-positive (activated) fibroblasts, mouse atrial fibroblasts + TGFβ1 turned out to be 43% and the percentage of αSMA-positive (activated) fibroblasts, mouse atrial fibroblasts + TGFβ1, normalised to unstimulated (=1) (fold of unstimulated) was found to be 1.44.
